The values that follow come from the supplement of paper PMC9170038.

The series has as its system MS2 coat protein. Nature of the series: apparent KD of MS2 coat protein; designed switch direction (-1 OFF switch, 1 ON switch): -1; higher = weaker reporter binding. Summed up:
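RNA switches sharing common flanks were transcribed by stalled E. coli RNA polymerase on Illumina chips. A doubling series of SNAP-549-labelled MS2 coat protein, from 0.7 or 1.5 nM to 3 µM, was applied in Tris-HCl pH 7.5 buffer with KCl, MgCl2, BSA, DTT, tRNA and Tween-20. Each step lasted 0.8–1.5 h at the bottom of the series and 10–20 min at the top. Normalised cluster fluorescence was curve-fitted, giving apparent KD as the per-design median over clusters.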

Setting [1] is: input ligand: microRNA oligo, concentration not stated.
[2] abbreviates: Eterna round: R95, input ligand: microRNA oligo, concentration not stated.
Where [3] appears, read: Eterna round: R95, input ligand: FMN 200 uM.
[4] abbreviates: Eterna round: R95, input ligand: none.

On to “UUAAAUCAUGUAGGAUAUGCGUGGCGAAGCUAUGCAGAAGGACAUGAGGAUCACCCAUGUUCUAGCGUCCGCGUACGGAUGCAA [JL Eng1 1.21 mod 10] (Eterna round: R96, puzzle: Exclusion NG 1)”, for which the “apparent KD of MS2 coat protein” value reads like this: (input ligand: FMN 200 uM) 144 nM; under setting [1], 12 nM; (input ligand: none) 18.6 nM.
Consider “UCAUGUAUGUAGGAUAUCGAUGUCCUUGGACAUCGAGAAGGACGUACAUGAGGAUCACCCAUGUAACUUGCAUG [Exclusion 6 - B - 11:d] (puzzle: Exclusion 6)”, for which, under setting [2], the “apparent KD of MS2 coat protein” value was found to be 18.7 nM.
“UAUUACUCAGGAUAUAUGAUGUGAAACAUGAGGAUCACCCAUGUAAUAUUAUGGAUGUAAAUAGAAGGGAGAUUAU [Mat - Exclusion 5 - JL mod - D19] (puzzle: Exclusion 5)”: the “apparent KD of MS2 coat protein” value is, setting by setting: under setting [3], 49.2 nM; under setting [2], 51.8 nM; under setting [4], 64.6 nM.
For the sequence “UGUGCGUAUGUGAGGAUAUGCUGGUCCUUGGAUCGGCAGAAGGCACAUGAGGAUCACCCAUGUGGUGUCGUUCG [salish99_Bmod_ex4_097] (puzzle: Brourd's mod of Exclusion 4)”, under setting [2], the “apparent KD of MS2 coat protein” value turned out to be 206 nM.
On to “AACCUACAUGAGGAUCACCCAUGUGAGGAUAUAUUGUUAUUUAUAAUAUUUUUUAGUGGUAGAAGGCGCGUGAU [JR_Exc1_Sub019] (Eterna round: R97, puzzle: Exclusion 1)”, for which the “apparent KD of MS2 coat protein” value (input ligand: FMN 200 uM) was found to be 21 nM and the “apparent KD of MS2 coat protein” value (input ligand: none) was 18.5 nM.
In the case of “AGUGGGCUAGGAUAUCGAUGAACUCACAUGAGGAUCACCCAUGUGUCUUUGGUGGGCGCACGAGAAGGAGUAAGAU [Tiorat] (puzzle: Exclusion 5)”, the “apparent KD of MS2 coat protein” value under setting [2] turned out to be 36.5 nM.
Still for that read-out and setting: next, “UCGCUGCGAGGAUAUACAUGAGGAUCACCCAUGUGCGGGUCCGGGUCUUCGUCCAUUGGUAGAAGGCGCAGUGA [JL Laongeedie mod 6] (puzzle: Exclusion 3)”: 43 nM.
With “CUCUCUCGAGGAUAUACCGUAUGGUGGAAUCUCCUCGGAAGACAUGAGGAUCACCCAUGUAGAAGGCGAGAUGG [Eternabot (L2) Solution 64] (Eterna round: R97, puzzle: Exclusion 2)”, the “apparent KD of MS2 coat protein” value was 144 nM (input ligand: FMN 200 uM) and 31.3 nM (input ligand: none).
Regarding “ACGCGAGUAGGAGGAUAUUCCGAGCGCGGGCCGGGAGAAGGCCUAGAUCGUGAACAUGAGGAUCACCCAUGUGGGAUGAUCUAA [Ededaranri] (Eterna round: R96, puzzle: Exclusion NG 1)”, the “apparent KD of MS2 coat protein” value is, setting by setting: (input ligand: FMN 200 uM) 8.23 nM; under setting [1], 94.9 nM; (input ligand: none) 313 nM.
In the case of “UGCAGACGAGGAUAUAGAUUUAGAUACAUGAGGAUCACCCAUGUAUAUAUGUAUUUAGAUUUAGAAGGCGUCUGCU [E5/15-A4] (Eterna round: R97, puzzle: Exclusion 5)”, the “apparent KD of MS2 coat protein” value amounted to 240 nM (input ligand: FMN 200 uM) and 283 nM (input ligand: none).
For the sequence “AUAAUUAAUGCAGGAUAUCAGCACGUUUAGUGCUGAGAAGGGCACAUGAGGAUCACCCAUGUGAUCAAUUAAUAUUAAUAUUAU [ENG1/11-D2] (Eterna round: R96, puzzle: Exclusion NG 1)”, the “apparent KD of MS2 coat protein” value was 269 nM (input ligand: FMN 200 uM), 51.1 nM under setting [1] and 65 nM (input ligand: none).
“AUUAUAUAGAAAGGAUAUUGAUUAUUAUUUUAACAUGAGGAUCACCCAUGUAGCCUUAUGUAUAACAAGAAGGUUCAUUUAUUA [Title] (Eterna round: R96, puzzle: Exclusion NG 2)”: the “apparent KD of MS2 coat protein” value under setting [1] was found to be 58.4 nM.
Take “AAUUAAGCAAGCAGAUCCCACAUGAGGAUCACCCAUGUGCUCGUCUUAUAAGGUACUGUGACGAUAGUCACGGUACC [Mat - Sensor, turn-off var - Eli Mod - D71] (Eterna round: R97, puzzle: Sensor, turn-off variant 1)”: the “apparent KD of MS2 coat protein” value by setting is: (input ligand: FMN 200 uM) 135 nM; (input ligand: none) 140 nM.
In the case of “AAACUCCUGACAACCAGGAACAUGAGGAUCACCCAUGUGGCGUGACUCAUACGGGCUUUUUGUUCGUUUUAUUCACG [Aleatxe] (puzzle: Sensor v3, turn-off variant 1)”, the “apparent KD of MS2 coat protein” value by setting is: under setting [3], 41 nM; under setting [2], 26.6 nM; under setting [4], 51 nM.
The like results for “AGCCAGCUAGGAUAUUGCAGUUGUAACAUGAGGAUCACCCAUGUGAUAGGUGUUUAGCUCCAAGAAGGAGCGCGGC [Eronsoti] (puzzle: Exclusion 5)” were, in that order, 88.7 nM, 27.1 nM and 28 nM.
The matching figures for “CAGCCUCAGGUUAGGAUAUACGCGUGGCCGAAGGAGUAGAAGGGACAUGAGGAUCACCCAUGUGGGUUCAAAUG [Onsoisgeso] (puzzle: Brourd's mod of Exclusion 4)”: 292 nM, 151 nM and 270 nM.
On to “GUAGAGUGAGGAUAUACGAGAUCGAAAGAUCAACGAUCCAAACAUGAGGAUCACCCAUGUAGAAGGCACUCUAC [Eli x2 4.008] (Eterna round: R97, puzzle: Exclusion 2)”, for which the “apparent KD of MS2 coat protein” value reads like this: (input ligand: FMN 200 uM) 270 nM; (input ligand: none) 27.1 nM.
The matching figures for “GGCAGUCGAGGAUAUACAAUCGUGCUUCGGCACGUAAGAUCACAUGAGGAUCACCCAUGUAGAAGGCGACUGCC [E2/1-A1] (Eterna round: R97, puzzle: Exclusion 2)”: 749 nM and 53.2 nM.
On to “UAUGGGUGUGUGAGGAUAUACGAAGGCAGUGGCCAGUAGAAGGUACAUGAGGAUCACCCAUGUGUCCAAAAGUG [Isonge] (puzzle: Brourd's mod of Exclusion 4)”, for which, under setting [2], the “apparent KD of MS2 coat protein” value was found to be 13.9 nM.
In the case of “GUGUAGGGAGGAUAUACAUGAGGAUCACCCAUGUGAAUAAGAUAGAAUAAGAUAAAGUGUAGAAGGCUUAGUGU [Excluse me!!! 24 - Jieux - Exclusion 3] (puzzle: Exclusion 3)”, the “apparent KD of MS2 coat protein” value was determined as 49.6 nM under setting [3], 53 nM under setting [2] and 67.9 nM under setting [4].
For “AGAGAAUACUCAGGAUAUCUUAAUAGAAAGAAUAGAGAAGGGAGACAUGAGGAUCACCCAUGUGAAGUCUUGAGACUACAUGGU [Prohibition 29 - Jieux - Exclusion NG 1] (Eterna round: R96, puzzle: Exclusion NG 1)”, the “apparent KD of MS2 coat protein” value under setting [1] was 218 nM.
Regarding “GCACCACGAGGAUAUACAUGAGGAUCACCCAUGUGAUCAGCAGUCCUCGGACUGCAAUGUAGAAGGCGUGGUGC [E3/1-A1] (Eterna round: R97, puzzle: Exclusion 3)”, the “apparent KD of MS2 coat protein” value (input ligand: FMN 200 uM) worked out at 24.3 nM and the “apparent KD of MS2 coat protein” value (input ligand: none) worked out at 776 nM.
Regarding “GAUGUGGGUUUCCGGAGUAACAUGAGGAUCACCCAUGUAGAAGUUGGAGGGAUCAAGCUUUUUGGUCGUCACACGUG [JR_SV3TOV1_Sub053] (puzzle: Sensor v3, turn-off variant 1)”, the “apparent KD of MS2 coat protein” value under setting [3] is 213 nM, the “apparent KD of MS2 coat protein” value under setting [2] worked out at 227 nM and the “apparent KD of MS2 coat protein” value under setting [4] worked out at 306 nM.
With “AGCUGUGGCCGAGGAUAUCUGUCCCAUAAAACCGAAAUAUAAUCGGACAUGAGGAUCACCCAUGUAGAGAAGGCGGUCUCAGCA [Eli eng2 - 098] (Eterna round: R96, puzzle: Exclusion NG 2)”, the “apparent KD of MS2 coat protein” value under setting [1] stood at 31.3 nM.
For “GGUUGGCGAGGAUAUACAUGAGGAUCACCCAUGUGAGAGAUACUAGUGAGGUCGAUUAGUAGAAGGCGCUGACG [JL-ex3-2.01 salish99 mod] (puzzle: Exclusion 3)”, the “apparent KD of MS2 coat protein” value runs as follows: under setting [3], 174 nM; under setting [2], 31.1 nM; under setting [4], 32.2 nM.
The matching figures for “CCUUUGUCAGGAUAUCAGAACGCGCUCGUAGGGAGCGCAAAUGAGAAGGGACAUGAGGAUCACCCAUGUAAAGA [Gequleon] (puzzle: Exclusion 4)”: 204 nM, 43.6 nM and 48.2 nM.
In the case of “CAAAUCAGGCGAGGAUAUCCGAAAGGAAGUGUAGGAGAAGGCGCGAAAUAUAAAACAUGAGGAUCACCCAUGUCGUCCCGUGUG [PowerStrip EXNG 1.21] (Eterna round: R96, puzzle: Exclusion NG 1)”, the “apparent KD of MS2 coat protein” value is, setting by setting: (input ligand: FMN 200 uM) 169 nM; under setting [1], 117 nM; (input ligand: none) 130 nM.
The like results for “UUUCUUCAUAUCACAUGAGGAUCACCCAUGUUAUUCAUCGCGUAGGAUAUCGAGAAUUUUAAAUACGAGAAGGACGUAUUGAUA [JR_ExcNG3_Sub072] (Eterna round: R96, puzzle: Exclusion NG 3)” were, in that order, 43.4 nM, 31.1 nM and 38.8 nM.
Take “GUGAGCAGACGGAGAUCCAACAUGAGGAUCACCCAUGUCUCAUAAGCUUUUUGCUCAUCUUAUUGUACCUUGGUGCU [Mat - Sensor v3 - turn-off var 1 - JL Mod - D20] (puzzle: Sensor v3, turn-off variant 1)”: the “apparent KD of MS2 coat protein” value was determined as 291 nM under setting [3], 8.27 nM under setting [2] and 253 nM under setting [4].
On to “GCAGCAAUCUCAAUUAAAACCACAUGAGGAUCACCCAUGUCUCAGGAUAUGGUCUGGAUUACAGGCCAGAAGGGAGAAAGCUGC [Eli exng3 - 053] (Eterna round: R96, puzzle: Exclusion NG 3)”, for which the “apparent KD of MS2 coat protein” value came to 13.5 nM (input ligand: FMN 200 uM), 10.2 nM under setting [1] and 13 nM (input ligand: none).
For “AAGAUACAUGAGGAUCACCCAUGUUAGGAUAUACGCAUGCAUGCAUGCAUGCAUGCAAGUAGAAGGAACCAUGC [Design #3] (Eterna round: R97, puzzle: Exclusion 1)”, the “apparent KD of MS2 coat protein” value by setting is: (input ligand: FMN 200 uM) 29.2 nM; (input ligand: none) 28.4 nM.
